Experimental data reported in a protein production outcome set (Wang et al. 2014).

Experiment: label from the status in PepcDB records

Row | Sequence | protein production
1 | MVVRSLSVVGLGPAGAGAAAAASRLGVKPVIYEAMEKPGLKPCGRGLPIVDGGLPVSIPRDSILRRIRGARMYVDGEFLFEMKGFLDGYIVDKTVMLEAIAVEAGGEIHYRAKYKPGSSTVRLPGGGEARVEQGVFAGGHPYYGGAKIAAVQWIMKTGPRSDPVGDMLEIHFDTELLGYAYIFPKEEGFIEVGIGGFATPRELRERLESFIHKRSDLRELERVKLEGARIAIGGLDLGVVDGLVKAGEAAGFVLPLTGEGIRPSLISGYEAASALIEGGSPLEKLRSLPIARAVSMQKRILDLVAGMSVEERRSLLKSLTPRAHAEIALGMFRKHILLKELARSPRALSLLGLVTRLI | failed
2 | MVVYGADVICASCVNAPTSKDIYDWLQPLLKRKYPNISFKYTYIDITKDNDNLTDHDLQFIERIEQDELFYPLITMNDEYVADGYIQTKQITRFIDQKLVNE | not failed
3 | MVVYGKQKYIMKRCFYMNKKLKTEAVDHLFQAILTLKSTEECYSFFEDVCTVNELLSFSQRYEVAKMLREKRTYLEIADKTGASTATISRVNRSLNYGNDGYDMVFKRLEDQAAEDNEA | failed
4 | MVWTGLLIGVLFGVILQRGRICFNSAFRDVLIFKDNYLMRLAALTLGLESITLLIFAQAGIITLNPKPLNWIGNIIGGFIFGMGMVLAGGCASGVTYRTGEGMTTAWFAALAYALTAHATKKGLFSGWIKWLSNYTVTVSNTNPVYAPKTGPTIATVLGISPWIASIIFLALMLWYAFGVKNKSQRPSKLNWIAASVLIAILAPIAWWASASTGRNYGLGITGGWINLVSVYANNASLNWEGAEILGIIIGAAISAIAGKEFKLRMPKNPKTYAQVLLGGFLMGFGAVTAGGCNIGHFLTGVPTLAISSIVASIFFILGNWTMAWFLFGRQK | failed
5 | MVYDNIKREIIGMLKRMPNKQADWDNDLLPTLKAMFNPKSVSNAKSQLISEGVISQEIVDGKKIITLIKDPYELQAPNVFDEEMFLAYYTDKLKEYFKHKLSTEGPEWDIFDVKEFIMHFPESGDLNDKLIEHPYEVRKSITNVYIEAYEELFNETPNVEFIHIRNPIDCRISLSELSSAHKGKLVEFRAMILQATKLKLRYAKGFYYCPKCGATKTLDLGFWDKPKEVGKSLTCPADGCDCKGLIFDEDLSGKVDFQEIKVQTPLQESIYANKHSTTVFYEFNKPKKAVYSGYVKIVGVPIVKENKNGSVGELYIHAFYIEKDDEDIEEIAKNLNEKDLELINRIAKDKNVIQKLSDYAFREVTGYDMIKRAVLLQLVSSGTNIDMRTSIHILMISDPGVGKSTLMESLIQKFPFVKKVYAVTSSGPGLVGSVVREKAEFGDSWVLKAGVLTEADGGVVCIDEFSRNKEVYDYLLGVMEQQKIEINKAGVIDAVLPARVAILAACNPRFGRFNPDLTVWEQINLPKELLDRFDLIFVIKDKIDKKKDEDIADFSIDNYNSKVRERKGKSSGKKFVINGVELNDELLLKYVLYARQIEPEISDEARKIIKEYYVSVRKMSEAKGTFGISARQLGSIIRLAVAHAKLRLSEVVKAVDAEEAIRLVDTCLKQIAYDPESGSIDIDKIAGTPKSKRDKVEKVLNIIKEISNSRDDGLAPEEEIYERAERAGLSEKEVEDAINYLKRVGDIYSPKSGYWQLMS | failed
6 | MWAYLAILAMAYVTYKTKALDIKGIIAALLLGVIIVTLGGIIPFIALLAFLVMGTLATKFRYREKRKMGLIDESIRSVGNVLGNGLAPLLFVIVEFIIKQDFGWAGVLSSIAVANADTLASEIGKVFGKNPRIITNLKPAKPGEEGAVSFAGEFAALLGAFVISLFGLSLTEYGIQMIVSVTLAGLIGANIDSLIGATFEKNGYFGNNMTNFIATLLGGLLGMALFLLLV | failed
7 | MWDALTNWLNLWVGQIEATVFQNVVLPVVYNLGFGGYAEDAFTGTEWLLVGLVQIAVMVLILGPLERLRPVEVVTDRAAIRTDILYTLIHRLGLFRLAMFFLLAPLMDGIEGHLRLLGWQRVNVEDWWPGVTSIPLISFSLYLALFDLLDYWYHRLSHTYRWWWSLHAVHHSQRQMTLWSDNRNHLLDDILRDFVFAAVALAVGVEPSQYVLLVALSQLLQSLQHANLRLHFGWLGERLLISPRFHRTHHAVGLGHEKRATAEKPARLGGCNYGVIFPWWDMLFGTADFTDVYHPTGIRDQMPPPAGRARSYGDGFLSQQWLGIKRLLRLG | failed
8 | MWRSCLRLRDGGRRLLNRPAGGPSASMSPGPTIPSPARAYAPPTERKRFYQNVSITQGEGGFEINLDHRKLKTPQAKLFTVPSEALAIAVATEWDSQQDTIKYYTMHLTTLCNTSLDNPTQRNKDQLIRAAVKFLDTDTICYRVEEPETLVELQRNEWDPIIEWAEKRYGVEISSSTSIMGPSIPAKTREVLVSHLASYNTWALQGIEFVAAQLKSMVLTLGLIDLRLTVEQAVLLSRLEEEYQIQKWGNIEWAHDYELQELRARTAAGTLFIHLCSESTTVKHKLLKE | failed
9 | MWVQTKANEDAAPMSERFTLVLLTHEAKALAQRALRYYSSFACSILVLDSSEKADESLARQFPKVDYRHVPQFSRQDQQGKLTYGVGLVDTPYLAIASDTDFLIADGISAALAFLDAHPDYAVCHGYGLMYSARVLETSYYLRDRKGPEDFAAANGRERIMSFMGHYLSPFNAVTRTDVLRQWYSQLPPAVSTEWLDIGYAFFLLATAKARILPVPFIVREANREALERTARIQALLSSKDAGSLAQHQQFAEFLATLPHNCEGPDAQQMKQLALDSFAALAECLESGRSLKGVMIFRSTWSEVGKDPVRAFGSEQFVEMPFYNQPMFDLLTQIEFLVHAMPAGRLQLNELEGVLLKQEELLRVHSNDTARTLRSRLWEAMALNLFNFTVVKRLAESMRDTDEVEVFRELQEWAARLKALPATDSSALFANTQSGQLFSWLEGRGPKPGQFKSIAHLLGRRAGGPQFQILLLDLDADMIKLQATFDSLMANHCKAFKLVVLTTGDLPAMTTAQDTVHFVKVSQGNYIERLNQLVAQSTAHWVLLMEAGDQLTASGLLRASLELLGAEGIRAVAMDEVQRQADGTLRHVFRPGVNLDLLQSAPNLMARHWLLHREVLLQAGGFNREFARAVELDLVLRLIEDGGLAGLAHLAEPLLICQAAPAGENAEERQVLSRHLANRGYRAQVSSAQPGTYQIDYQHAERPLVSIILPSQDNFAELQRCLVSVLQRTRYQRYEVLIAENHSQNAELDSWLASLERQGERIRVLRSGQRVSTSALHNAACAEAKGEYLLLLSADAEVVNANWIDSLLNQVQRPEIGIVGARLVNERGMTTQAGLILGLNGQLGAAFAGEAKDAPGYMNSLWVEKNYSAVSGVCLMIAKALFEAVGGLDEEHFDQAFADVDLCLKVADAGYLTVLTPQAQVMHPGTLAQDPQALAALKDKWAARFAQDTAYNQNLALTGKGFALGTASRVDWQQLLSN | failed
10 | MWYPLAAMKGVLEALHQGDYDTAIDLLTRKALFGREREAKEAWLLLAEVYALYGEEGLEKAHHALEEAYALGGLEYDPLYRSLLAELLALEGRPEREVLPLFLPSRDPRVRYHQAQALFYLGRLEEALEVLEAGLPPHLAWRAEGLKGRILERLGRHGEAALAYERGAELALGLERYWLLLDAAAMWLEAGEGERALLALKEAEAAVGEEDPEDAATRHYLLARAHLLLGNPGLALEEIRKALALEEESGHKAYGTPLVEGQALLQLGRYEEAMASFREALARADAGERPHVLHEMGVAALDHGAYPEAEEHLRALVREEGYPYLAQAYADLAEALYRQGRYQEAEAAAREAVARGAVAAGELVLGHVAYDLLHLEEALEHYRKAAESAEEGSREWVGAQEMVVDTLAQLGYRFPEEMVRRGQAVLPYLHPADEWHAALTAYVERAQALLREGKRLN | failed
11 | MYAAVEHGPVLCSDSNILCLSWKGRVPKSEKEKPVCRRRYYEEGWLATGNGRGVVGVTFTSSHCRRDRSTPQRINFNLRGHNSEVVLVRWNEPYQKLATCDADGGIFVWIQYEGRWSVELVNDRGAQVSDFTWSHDGTQALISYRDGFVLVGSVSGQRHWSSEINLESQITCGIWTPDDQQVLFGTADGQVIVMDCHGRMLAHVLLHESDGILSMSWNYPIFLVEDSSESDTDSDDYSPPQDGPAAYPIPVQNTKPLLTVSFTSGDISLMNNYDDLSPTVIRSGLKEVVAQWCTQGDLLAVAGMEQQAQLSELPNGPLLKSAMVKFYNVRGEHIFTLDTLVQRPIISICWGHRDSRLLMASGPALYVVRVEHRVSSLQLLCQQAIASTLREDKDVNKLTLPPRLCSYLSTAFIPTIKPPIPDPNNMRDFVSYPSAGNERLHCTMKRTEDDPEVGGPCYTLYLEYLGGLVPILKGRRISKLRPEFVIMDPRTDSKSDEIYGNSLISTVIDSCNCSDSSDIELSDDWAAKKSPKISRSSKSPKLPRISIEARKSPKLPRAAQEISRSPRLPMRKPSMGSPSLTRREFPFEDITQVGSYN | failed
12 | MYADEQFKQVFQCIRCAACLNVCPAFQLVGGHVYGHIYTGGIGTILTAFLNSEKDAENPQNLCLQCGKCTEVCAGKLDIPGMILEIRNRIGDQKGLPMTPLEHHHHHH | failed
13 | MYALVDAVSFYASAEKVFDPSIRNKPVVVLTNNDGCICAVCPIARRLGIPKFIPYFQVKSLLEKHGVVVRSSNYELYADLSERMMNVIGRFCDNQYIYSIDESFLYFDHYESCINDWHEYGHKIRKAIWKETRLPVGVGFGETATLSKAANHAAKKLSGFNGVAVINSAVSRDKILKRMAVDEVWGIGRKISKRLGLEGINNAAQLAEQDPKHIRKQFSVVTERTVNELNGISCLSWDEVKSPKKEIFSTRSFGQRITTKNELRSALVTHAAIVGRKVRRQNSLIKKLMIFASNSPHDDLYYKQSMVFPFIIATENTCEMARAVNQVIDSIYKAGIKFYRCGVGAIELNSKTFIQPDLFMPDHTNSNVMKCLDNVNHRYGDSTLKLAAEGHHEKWQMRRAFLSPQYTSQWRDIPKIQC | failed
14 | MYDFKKINNLRGIERETLRVTDCGNLATSNHPDGLGHKLTNNSITVDFSENLLELITKPHDSIDKAIGELYQLSAFTLDNMHSDEIILNTSMPLSANDNDIQEADFGSSNSGRMKRVYRKGLSARYGKIMQIISGIHYNFSFDKDLISNIATNKQVSISDIYFDVLNNYFEFMWLLPYLFGASPICAKTSVKNKPDYLSVLDDKFYVGEYATSLRMSDLGYTSPAQKDLAISYDNVKAYVKDLIQATDDTFADYKRIGLYNSQGQRIQLNDGILQIENEYYSAIRPKQIAKRGERPACALYNRGVEYVEVRVLDVDPFEPVGISKDTALFVEVMLMTCLDKDAKKYHKDIIKQAKQNLTAVAIQGRNPQLKLKKLDDDSEILLKDYALELFDEIEAVAKKMPKEYLDAVEIQKRKVLDISQTPSAKIIELARQHGYKKFILDISRRVSQQFRSYELPAAIVAKLKDQAGQSVAAEKELVANDKISLDEYINRYYKSSKGCC | not failed
15 | MYDHILLASDGTEASTNAESHAISLAAEHGAALHVLYVVDEDVYTAYSGDEYVDESEGPEHGLEETGQETLARIQADAEASGVDATTTLKHGRPAESVIETADEADVDLLVLGTKRRPAEYRSLLGSITDKVLRLSERPAVVVKTEVEE | failed
16 | MYDLRPRTLTFLEVALPPTTDTTPIFSLLFFSQCSVFKGFSRSTSSAEAGGVLGGSTRVLICSVSSLVKIEDCKVKIFDKLSEKAEKVLEIGIGTGPNMRYYAARNSNVTLYGLDPNPKMKKYARKSATKAGLKPKNFRFKQGVGEAIPLKDNSVDAVVATLVLCSVSDVTQTLKEIKRVLRQGGVFIFLEHVAAKDGSFFKRLQKLLDPLQQRLADGCHLARNTRECILEAGFSGGVEVQTFSMYSFPWMTRPHIYGLAYN | not failed
17 | MYEGEIAIGPVHSTMLEPHRLRLFIEDEIVKDAELTIGVNHRGVERLMEGLPVEKACILCEKICGICSHIHLWSAARVAEIGCNIEVPERANHIRIIVEELERLHSHTLLFGHAFEILGHETMSMRCFMLREPIMQVFFEISGSRVHYSCPIIGGIRPRCNISETQISHIHDKISQYEEGLTKFIERMLNDPMIISRVKDVGVMDRKTAAKFHAVGPTARGSNVKSDMRKWGWVPEYDPYDFDEILFDSGDVFARLAVRFYECLESVKIIRQALDALKDTSDKRIYNPNYELNEFKPINCYTEAQRGEQYYSYGLDDEGLVRQAKIRTPTATNLGAMEDIVKGYHVSDAELIIASCDPCFTCTDRLMVLKEPFKK | failed
